Experimental findings from EP4745156A1 are described below.

Test [1] deals with His-tagged canine IL-31 (interleukin 31) recombinant protein (canine). The test is described as follows: BLI (Gator), biotinylated antibody on streptavidin probe, canine IL-31 as analyte.
Test [2] has the same target. The test is described as follows: cell-based or functional assay.

B1: 6465-H2K1-canIgGB (antibody, V domains shown)
VH: EVQLVESGGDLVKPGGSLRLSCVASGYSFTNYYLYWVRQAPGKGLQWLGELNPRNGGTNLNAKFKTRFTISVDKAKNTAYLQMNSLRAEDTAVYYCTRGGTTVVVRDVMDFWGQGTLVTVSS
VL: EIVLTQTPLSLAVTPGELATISCRASESVDSYGNSFMHWYLQKPGQTPRLLIYRASNLESGVSDRFSGSGSRTDFTLKISRVEAEDVGVYYCQQSNEDPYTFGQGTKLEIKR
Consider B1, for which, in test [1], the Kd came to 3.37 nM, the koff came to 0.00171 s⁻¹ and the kon stood at 508000 M⁻¹ s⁻¹. Besides, the pSTAT IC50 (µg/mL) in test [2] was found to be 7.3 µg/mL.

B2: 6465-H3K1-canIgGB (antibody, V domains shown)
VH: EVQLVESGGDLVKPGGSLRLSCVASGYSFTNYYLYWVRQAPGKGLEWVAELNPRNGGTNLNAKFKTRFTISRDNAKNMAYLQMNSLRAEDTAVYYCTRGGTTVVVRDVMDFWGQGTLVTVSS
VL: EIVLTQTPLSLAVTPGELATISCRASESVDSYGNSFMHWYLQKPGQTPRLLIYRASNLESGVSDRFSGSGSRTDFTLKISRVEAEDVGVYYCQQSNEDPYTFGQGTKLEIKR
Consider B2, for which, in test [1], the Kd stood at 5.75 nM, the koff is 0.00121 s⁻¹ and the kon was found to be 211000 M⁻¹ s⁻¹. Also, the pSTAT IC50 (µg/mL) in test [2] was found to be 7.8 µg/mL.

B3: 6465-H3K2-canIgGB (antibody, V domains shown)
VH: EVQLVESGGDLVKPGGSLRLSCVASGYSFTNYYLYWVRQAPGKGLEWVAELNPRNGGTNLNAKFKTRFTISRDNAKNMAYLQMNSLRAEDTAVYYCTRGGTTVVVRDVMDFWGQGTLVTVSS
VL: DIVLTQTPLSLSVSPGEPASISCRASESVDSYGNSFMHWYRQKPGQSPQLLIYRASNLESGVPDRFSGSGSRTDFTLRISRVEADDAGVYYCQQSNEDPYTFGQGTKLEIKR
Regarding B3, in test [1], the Kd is 6.95 nM, the koff is 0.00361 s⁻¹ and the kon turned out to be 519000 M⁻¹ s⁻¹. In addition, in test [2], the pSTAT IC50 (µg/mL) was found to be 8.2 µg/mL.

B4: 6465-H1K3-canIgGB (antibody, V domains shown)
VH: EVQLVESGGDLVKPGGSLRLSCVASGYSFTNYYLYWVRQAPGKGLEWVGELNPRNGGTNLNAKFKTRFTISVDKAKNMAYLQMNSLRAEDTAVYYCTRGGTTVVVRDVMDFWGQGTLVTVSS
VL: DIVMTQTPLSLSVSPGEPASISCRASESVDSYGNSFMHWYRQKPGQSPQLLIYRASNLESGVPDRFSGSGSGTDFTLRISRVEADDAGVYYCQQSNEDPYTFGQGTKLEIKR
B4: in test [1], the Kd was found to be 2.5 nM, the koff turned out to be 0.00145 s⁻¹ and the kon amounted to 579000 M⁻¹ s⁻¹. In addition, the pSTAT IC50 (µg/mL) in test [2] was found to be 7.4 µg/mL.

B5: 6465-H2K3-canIgGB (antibody, V domains shown)
VH: EVQLVESGGDLVKPGGSLRLSCVASGYSFTNYYLYWVRQAPGKGLQWLGELNPRNGGTNLNAKFKTRFTISVDKAKNTAYLQMNSLRAEDTAVYYCTRGGTTVVVRDVMDFWGQGTLVTVSS
VL: DIVMTQTPLSLSVSPGEPASISCRASESVDSYGNSFMHWYRQKPGQSPQLLIYRASNLESGVPDRFSGSGSGTDFTLRISRVEADDAGVYYCQQSNEDPYTFGQGTKLEIKR
With B5, in test [1], the Kd worked out at 4.99 nM, the koff was found to be 0.001 s⁻¹ and the kon is 201000 M⁻¹ s⁻¹. Also, the pSTAT IC50 (µg/mL) in test [2] was 7.6 µg/mL.

B6: 6465-H2K2-canIgGB (antibody, V domains shown)
VH: EVQLVESGGDLVKPGGSLRLSCVASGYSFTNYYLYWVRQAPGKGLQWLGELNPRNGGTNLNAKFKTRFTISVDKAKNTAYLQMNSLRAEDTAVYYCTRGGTTVVVRDVMDFWGQGTLVTVSS
VL: DIVLTQTPLSLSVSPGEPASISCRASESVDSYGNSFMHWYRQKPGQSPQLLIYRASNLESGVPDRFSGSGSRTDFTLRISRVEADDAGVYYCQQSNEDPYTFGQGTKLEIKR
Consider B6, for which, in test [1], the Kd was 17.8 nM, the koff is 0.00166 s⁻¹ and the kon is 93200 M⁻¹ s⁻¹. Also, the pSTAT IC50 (µg/mL) in test [2] amounted to 7.3 µg/mL.

B7: 6465-H1K2-canIgGB (antibody, V domains shown)
VH: EVQLVESGGDLVKPGGSLRLSCVASGYSFTNYYLYWVRQAPGKGLEWVGELNPRNGGTNLNAKFKTRFTISVDKAKNMAYLQMNSLRAEDTAVYYCTRGGTTVVVRDVMDFWGQGTLVTVSS
VL: DIVLTQTPLSLSVSPGEPASISCRASESVDSYGNSFMHWYRQKPGQSPQLLIYRASNLESGVPDRFSGSGSRTDFTLRISRVEADDAGVYYCQQSNEDPYTFGQGTKLEIKR
With B7, in test [1], the Kd was found to be 6.54 nM, the koff came out at 0.00088 s⁻¹ and the kon was determined as 135000 M⁻¹ s⁻¹. Moreover, the pSTAT IC50 (µg/mL) in test [2] came out at 7.9 µg/mL.

B8: B2-H3K3-canIgGB (antibody, V domains shown)
VH: EVQLVESGGDLVKPGGSLRLSCVASGFTFSDAWMDWVRQAPGKGLQWVAEIRSRAESHATYYAESVKGRFTISRDDAKNTVYLQMNSLRAEDTAVYYCTPASTMITTGWFAYWGQGTLVTVSS
VL: EIVMTQTPLSLSVSPGELATISCRASQNISVYLHWYQQKPGQAPKVLIKYVSQSISGVPSRFSGSGSGSDFTLTISSVEAEDVGVYYCQNGHSFPYTFGQGTKLEIKR
With B8, in test [1], the Kd amounted to 3.16 nM, the koff amounted to 0.000381 s⁻¹ and the kon came to 121000 M⁻¹ s⁻¹. The pSTAT IC50 (µg/mL) in test [2] stood at 7.4 µg/mL.

The Kd is the equilibrium constant for the complex coming apart. For orientation: koff means a measure of how fast the partners let go of each other. By kon is commonly meant a measure of how fast the partners come together.
